Experimental data: paper PMC6689063

Molecular target: T1, AztC from Paracoccus denitrificans (WT PdAztC), solute binding protein of the AztABC zinc transporter (Paracoccus denitrificans PD1222) (UniProt A1B2F3)
T1 sequence: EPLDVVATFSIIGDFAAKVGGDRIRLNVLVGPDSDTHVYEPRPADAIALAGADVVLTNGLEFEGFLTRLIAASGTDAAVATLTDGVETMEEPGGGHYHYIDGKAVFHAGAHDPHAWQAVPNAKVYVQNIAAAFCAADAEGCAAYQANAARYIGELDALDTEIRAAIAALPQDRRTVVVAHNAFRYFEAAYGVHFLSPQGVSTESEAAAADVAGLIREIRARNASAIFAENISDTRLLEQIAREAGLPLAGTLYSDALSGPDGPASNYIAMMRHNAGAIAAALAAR

zinc transferred to AztC after incubation of 100 μM each protein with 1 mM EDTA, anion exchange chromatography and zinc quantitation by ICP-OES (equivalent of zinc): 1
B1: ΔS1 PdAztD (H124A/H167A/H218A) (natural protein)
chain: QDHDHDHEDVTLYRVFVGDHEKGQVTAFDLAEPDHRWTFPTTGQVKLYSVAGGAVVAAVQSDADTVQFIRSGISFHDHGDHRDIEVGDPAAIDASLTGPRPFALVEHDGKVVLNYDQGGYAEILDGHALAEGKAEPGRFPQARAHAGFVAPLGGNWLSTVASDEKVEGDASVPRLGLQAFDAEGNPAGNLATCTGIAGEAFSGAYLAAGCKEGVLTVKAGANGSEYKLLPYPADLPQGVTTGTLLGSTGIQVFLGNYGPDGLVVIDPVDEPHYRYIKLPFRRVDFALDPAKPSTGYVLTEDGSLHRIDLLKAEIVASAKVTEPYSMDGHWNDPRPRIAMAGDEIVVTDPNAGLVRRIATEDLSERGTVPVEGKPYNIAVTGGSGVTH
